B1: Myocardin-related transcription factor A, residues 341 to 383; numbered along this chain, Q969V6 (parent)
chain: GALPANLDDMKVAELKQELKLRSLPVSGTKTELIERLRAYQDQ
B2: Tumor protein 63, residues 545 to 610; numbered along this chain, Q9H3D4 (parent)
chain: TDCSIVSFLARLGCSSCLDYFTTQGLTTIYQIEHYSMDDLASLKIPEQFRHAIWKGILDHRQLHEF

Variants of: B1
Assay: abundance fitness (aPCA) (normalised: wild type 0, dead -1); higher = more abundant; growth selection in yeast, the domain comes from the species named
Settings: Homo sapiens

Abundance fitness of substitutions, site by site:
R22: N -0.47
L15: V -0.092
P25: I 0.319
R38: I -0.086
E32: C -0.17
S23: M -0.162
L3: N 0.128
Y40: T 0.08

Variants of: B2
Assay: as above
Settings: Homo sapiens

Abundance fitness of substitutions, site by site:
Q48: H -0.005; L -0.063; I -0.052; W -0.203; D -0.04; N -0.006; K -0.015; A -0.024; T -0.023; P -0.006; G -0.025; R -0.013; E 0.035; V -0.027; S -0.038; M -0.028; C -0.064; Y -0.078
I57: K -0.51; L -0.025; E -0.887; M -0.105; T -0.323; G -0.781; A -0.369; Q -0.611; N -0.799; Y -0.918; W -0.895; V -0.082; P -1.04; H -0.899; D -0.962; F -0.203; C -0.107
L63: I -0.034; F -0.105; V -0.043; N -0.04; W -0.054; Y -0.029; P -0.008; K -0.004; G -0.016; A 0.029; E 0.009; S 0.005; R -0.045; T -0.006; Q -0.016; D 0.004; C -0.01; M 0.025
H51: T 0.003; W -0.058; M -0.009; V -0.034; I -0.079; C -0.034; S 0.013; K -0.012; Q 0.005; A -0.022; E 0.005; F -0.052; Y -0.075; L -0.029; R -0.031; D -0.028; G -0.023; P -0.031
E65: P -0.082; T -0.049; Y -0.184; V -0.093; K 0.002; R -0.065; D 0.081; I -0.099; N -0.027; M -0.089; A 0.002; L -0.08; C -0.023; H -0.072; Q 0.113
A52: S -0.016; H -0.068; K -0.023; Y -0.116; P -0.043; W -0.076; T -0.037; V -0.013; G -0.086; I -0.062; N -0.092; L -0.024; F -0.049; C -0.015; D -0.064; M -0.101; E -0.024
F49: C -0.047; Q -0.023; W -0.052; T -0.127; V -0.113; N -0.058; I -0.168; K -0.027; P -0.061; S -0.026; D -0.021; M -0.014; E -0.007; G -0.174; H -0.004; L -0.059
E47: M -0.04; L -0.022; F -0.127; C -0.076; R -0.054; Q -0.004; Y -0.002; W -0.08; H -0.067; T -0.036; I -0.045; P -0.009; D 0.012; G 0.041; N -0.011; S -0.02; A -0.014
I53: S -0.918; G -0.979; P -1.07; N -0.783; H -0.887; L -0.117; K -0.25; M -0.403; E -0.893; Q -0.99; D -0.907; W -0.62; F -0.921; Y -0.821; C -0.528; R -0.945; T -0.787
Q62: E 0.013; V -0.051; G -0.023; T -0.023; L -0.039; N -0.056

— the Human Domainome abundance scans (Beltran et al. 2025)
